The supplement of paper PMC5998384

What was measured:
[1] = test system: HeLa Kyoto; test: solubility in G1/S (NP-40 vs SDS abundance) (log2 ratio); higher = more soluble; details: cell cycle stage: G1/S
[2] = test system: HeLa Kyoto; test: melting temperature (median over replicates), in situ; higher = more thermally stable
[3] = test system: HeLa Kyoto; test: solubility change mitosis vs G1/S (difference of NP-40 vs SDS log2 ratios) (log2 ratio difference); higher = more soluble in mitosis
[4] = test system: HeLa Kyoto; test: thermal stability score vs G1/S (z-score of summed log2 fold changes over temperatures); higher = more thermally stable than in G1/S
[5] = cell cycle stage: early G1 (4.5 h after nocodazole release)
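Wherever melting temperature (median over replicates), in situ is given: HeLa Kyoto cells synchronized by double thymidine or nocodazole block, proteins quantified by TMT10plex mass spectrometry, three independent biological replicates.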
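Wherever solubility change mitosis vs G1/S (difference of NP-40 vs SDS log2 ratios) is given: synchronized HeLa Kyoto cells (double thymidine block for G1/S, nocodazole release for mitosis), protein amounts in NP-40 versus SDS lysates quantified by mass spectrometry, three biological replicates.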
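Wherever solubility in G1/S (NP-40 vs SDS abundance) is given: HeLa Kyoto cells arrested at G1/S by double thymidine block, proteins quantified by TMT10plex mass spectrometry in mild NP-40 versus SDS extracts, three biological replicates.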
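Wherever thermal stability score vs G1/S (z-score of summed log2 fold changes over temperatures) is given: synchronized HeLa Kyoto cells, proteins quantified by TMT10plex mass spectrometry, three biological replicates, mitosis taken 0.5 h after nocodazole release, G1/S directly after double thymidine block.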

Row | Sequence | solubility in G1/S (log2) [1] | melting temperature ([2]; cell cycle stage: G1/S) | melting temperature ([2]; cell cycle stage: mitosis) | solubility change mitosis (log2) [3] | thermal stability score [4, 5] | thermal stability score ([4]; cell cycle stage: mitosis)
1 | MSFLKSFPPPGPAEGLLRQQPDTEAVLNGKGLGTGTLYIAESRLSWLDGSGLGFSLEYPTISLHALSRDRSDCLGEHLYVMVNAKFEEESKEPVADEEEEDSDDDVEPITEFRFVPSDKSALEAMFTAMCECQALHPDPEDEDSDDYDGEEYDVEAHEQGQGDIPTFYTYEEGLSHLTAEGQATLERLEGMLSQSVSSQYNMAGVRTEDSIRDYEDGMEVDTTPTVAGQFEDADVDH [CLNS1A] | -0.106 | 51.7 °C | 52.6 °C | 0.0376 | -0.798 | -0.57
2 | MAAPEERDLTQEQTEKLLQFQDLTGIESMDQCRHTLEQHNWNIEAAVQDRLNEQEGVPSVFNPPPSRPLQVNTADHRIYSYVVSRPQPRGLLGWGYYLIMLPFRFTYYTILDIFRFALRFIRPDPRSRVTDPVGDIVSFMHSFEEKYGRAHPVFYQGTYSQALNDAKRELRFLLVYLHGDDHQDSDEFCRNTLCAPEVISLINTRMLFWACSTNKPEGYRVSQALRENTYPFLAMIMLKDRRMTVVGRLEGLIQPDDLINQLTFIMDANQTYLVSERLEREERNQTQVLRQQQDEAYLASLRADQEKERKKREERERKRRKEEEVQQQKLAEERRRQNLQEEKERKLECLPPEPSPDDPESVKIIFKLPNDSRVERRFHFSQSLTVIHDFLFSLKESPEKFQIEANFPRRVLPCIPSEEWPNPPTLQEAGLSHTEVLFVQDLTDE [FAF2] | -0.0258 | 49.9 °C | 50.4 °C | -0.13 | 2.25 | 3.16
3 | MAAAAWLQVLPVILLLLGAHPSPLSFFSAGPATVAAADRSKWHIPIPSGKNYFSFGKILFRNTTIFLKFDGEPCDLSLNITWYLKSADCYNEIYNFKAEEVELYLEKLKEKRGLSGKYQTSSKLFQNCSELFKTQTFSGDFMHRLPLLGEKQEAKENGTNLTFIGDKTAMHEPLQTWQDAPYIFIVHIGISSSKESSKENSLSNLFTMTVEVKGPYEYLTLEDYPLMIFFMVMCIVYVLFGVLWLAWSACYWRDLLRIQFWIGAVIFLGMLEKAVFYAEFQNIRYKGESVQGALILAELLSAVKRSLARTLVIIVSLGYGIVKPRLGVTLHKVVVAGALYLLFSGMEGVLRVTGAQTDLASLAFIPLAFLDTALCWWIFISLTQTMKLLKLRRNIVKLSLYRHFTNTLILAVAASIVFIIWTTMKFRIVTCQSDWRELWVDDAIWRLLFSMILFVIMVLWRPSANNQRFAFSPLSEEEEEDEQKEPMLKESFEGMKMRSTKQEPNGNSKVNKAQEDDLKWVEENVPSSVTDVALPALLDSDEERMITHFERSKME [TMEM87A] | -0.0314 | 59 °C | 60.5 °C | -0.117 | -4.37 | -3.56
4 | MIPRKRYGSKNTDQGVYLGLSKTQVLSPATAGSSSSDIAPLPPPVTLVPPPPDTMSCRDRTQEFLSACKSLQTRQNGIQTNKPALRAVRQRSEFTLMAKRIGKDLSNTFAKLEKLTILAKRKSLFDDKAVEIEELTYIIKQDINSLNKQIAQLQDFVRAKGSQSGRHLQTHSNTIVVSLQSKLASMSNDFKSVLEVRTENLKQQRSRREQFSRAPVSALPLAPNHLGGGAVVLGAESHASKDVAIDMMDSRTSQQLQLIDEQDSYIQSRADTMQNIESTIVELGSIFQQLAHMVKEQEETIQRIDENVLGAQLDVEAAHSEILKYFQSVTSNRWLMVKIFLILIVFFIIFVVFLA [STX5] | 0.558 | 50 °C | 49.9 °C | -0.103 | 0.862 | 1.55
5 | MEVMNLMEQPIKVTEWQQTYTYDSGIHSGANTCVPSVSSKGIMEEDEACGRQYTLKKTTTYTQGVPPSQGDLEYQMSTTARAKRVREAMCPGVSGEDSSLLLATQVEGQATNLQRLAEPSQLLKSAIVHLINYQDDAELATRALPELTKLLNDEDPVVVTKAAMIVNQLSKKEASRRALMGSPQLVAAVVRTMQNTSDLDTARCTTSILHNLSHHREGLLAIFKSGGIPALVRMLSSPVESVLFYAITTLHNLLLYQEGAKMAVRLADGLQKMVPLLNKNNPKFLAITTDCLQLLAYGNQESKLIILANGGPQALVQIMRNYSYEKLLWTTSRVLKVLSVCPSNKPAIVEAGGMQALGKHLTSNSPRLVQNCLWTLRNLSDVATKQEGLESVLKILVNQLSVDDVNVLTCATGTLSNLTCNNSKNKTLVTQNSGVEALIHAILRAGDKDDITEPAVCALRHLTSRHPEAEMAQNSVRLNYGIPAIVKLLNQPNQWPLVKATIGLIRNLALCPANHAPLQEAAVIPRLVQLLVKAHQDAQRHVAAGTQQPYTDGVRMEEIVEGCTGALHILARDPMNRMEIFRLNTIPLFVQLLYSSVENIQRVAAGVLCELAQDKEAADAIDAEGASAPLMELLHSRNEGTATYAAAVLFRISEDKNPDYRKRVSVELTNSLFKHDPAAWEAAQSMIPINEPYGDDMDATYRPMYSSDVPLDPLEMHMDMDGDYPIDTYSDGLRPPYPTADHMLA [JUP] | -0.169 | 53.5 °C | 52.8 °C | -0.103 | -2.2 | -2.86
6 | MAHRPKRTFRQRAADSSDSDGAEESPAEPGAPRELPVPGSAEEEPPSGGGRAQVAGLPHRVRGPRGRGRVWASSRRATKAAPRADEGSESRTLDVSTDEEDKIHHSSESKDDQGLSSDSSSSLGEKELSSTVKIPDAAFIQAARRKRELARAQDDYISLDVQHTSSISGMKRESEDDPESEPDDHEKRIPFTLRPQTLRQRMAEESISRNEETSEESQEDEKQDTWEQQQMRKAVKIIEERDIDLSCGNGSSKVKKFDTSISFPPVNLEIIKKQLNTRLTLLQETHRSHLREYEKYVQDVKSSKSTIQNLESSSNQALNCKFYKSMKIYVENLIDCLNEKIINIQEIESSMHALLLKQAMTFMKRRQDELKHESTYLQQLSRKDETSTSGNFSVDEKTQWILEEIESRRTKRRQARVLSGNCNHQEGTSSDDELPSAEMIDFQKSQGDILQKQKKVFEEVQDDFCNIQNILLKFQQWREKFPDSYYEAFISLCIPKLLNPLIRVQLIDWNPLKLESTGLKEMPWFKSVEEFMDSSVEDSKKESSSDKKVLSAIINKTIIPRLTDFVEFLWDPLSTSQTTSLITHCRVILEEHSTCENEVSKSRQDLLKSIVSRMKKAVEDDVFIPLYPKSAVENKTSPHSKFQERQFWSGLKLFRNILLWNGLLTDDTLQELGLGKLLNRYLIIALLNATPGPDVVKKCNQVAACLPEKWFENSAMRTSIPQLENFIQFLLQSAHKLSRSEFRDEVEEIILILVKIKALNQAESFIGEHHLDHLKSLIKED [GCFC2] | 0.109 | 51.2 °C | 51.7 °C | -0.0501 | -2.18 | -1.62
